# From patent US20210009693A1 (MABSPACE BIOSCIENCES SUZHOU, published 2021)
# Read-outs that look alike come from different tables or passages of the source.
# B1: 21F11-C (antibody, V domains shown)
# VH: QVQLQQPGAELVKPGASVKLSCKASGYTFTSNWMHWVKQRPGQGLEWIGMMHPNSGSINYNEKFKNKATLTADKSSSTAYMQLSSLTSEDSAVYYCARSYYGSSPYYFDYWGQGTTLTVSS
# VL: DIQMTQTTSSLSASLGDRVTISCRASQDISNYLNWYQQKPDGTVKLLIYYTSRLHSGVPSRFSGSGSGTDFSLTISNLEEEDIATYFCQQGDTLPWTFGGGTKLEIK
# notes: Mouse variable regions fused to a human IgG1 constant region; also called 21F11-chimeric; chimeric antibody 21F11
# B2: 23A11-H3L5 (antibody, V domains shown)
# VH: LVQLVQSGAEVKKPGASVKLSCKASGYIFTTYWIHWVKQRPGQGLEWIGMIQPNSGGTKYNDQFKNRATLTVDKSISTAYMELSRLTSDDTAVYYCARGAGTVDYFDYWGQGTTLSISS
# VL: DIVLTQSPASLAVSVGQRATITCRASESVDIYGNSFMHWYQQKPGQAPKLLIYRASNLESGIPARFSGSGSRTDFTLTINPVEANDTATYYCQQSNDDPYTFGGGTKLETK
# notes: Human IgG1 constant region with N297A; biotinylated in the alanine-scan ELISA; also called 23A11-H3L5-bio; humanized 23A11
# B3: 23A11-H3L5 CHO (antibody, V domains shown)
# VH: QVQLVQSGAEVKKPGASVKLSCKASGYIFTTYWIHWVKQRPGQGLEWIGMIQPNSGGTKYNDQFKNRATLTVDKSISTAYMELSRLTSDDTAVYYCARGAGTVDYFDYWGQGTTLSISS
# VL: DIVLTQSPASLAVSVGQRATITCRASESVDIYGNSFMHWYQQKPGQAPKLLIYRASNLESGIPARFSGSGSRTDFTLTINPVEAQDTATYYCQQSNDDPYTFGGGTKLETK
# notes: CHO-produced counterpart of m16; also called 23A11-H3L5 produced in CHO cells
# B4: 26F5-C (antibody, V domains shown)
# VH: QVQLQQPGAELVKPGASVKLSCKASGYTFPSYWMHWMKQRPGQGLEWIGMIQPSTSGTIYNERFKNQVTLTVDKSSSTAYMQLSSQTSEDSAVYYCARGTGTVDYFDYWGQGTTLTVSS
# VL: DIVLTQSPASLAVSLGQRATISCRASESVDSYGNSFIHWYQQKPGQPPKLLIHRASNLESGIPATFSGSGSRTDFTLTINPVEADDVATYYCQQSKEDPYTFGGGTKLEIK
# notes: Mouse variable regions fused to a human IgG1 constant region; also called 26F5-chimeric; chimeric antibody 26F5
# B5: 23F11-H4L4 (produced in CHO cells) (antibody, V domains shown)
# VH: QVQLVQSGAEVKKPGASVKLSCKASGYIFTTYWMHWVKQRPGQGLEWIGMIQPNSGGTKYNEKFKKKATLTVDKSISTAYMELSRLTSDDTAVYYCARGAGTVDYFDYWGQGSTLTVSS
# VL: DIVLTQSPASLAVSVGQRATITCRASESVDIYGNSFMHWYQQKPGQPPKLLIYRASNLESGIPARFSGSGSRTDFTLTINPVEAQDTATYYCQQSTEDPYTFGGGTKLEIK
# notes: also called 23F11-H4L4 (CHO cell derived); 23F11 H4L4 CHO
# How the values were obtained:
# [1] = molecular target: T1, Recombinant Human PD-L1/CD274 Protein (hPD-L1-his) (human, UniProt Q9NZQ7 19-238); assay: ELISA on coated hPD-L1-his; bound at pH7.4, then 2 h at pH7.4
# T1 construct: range 19-238; ACRO Biosystem PD1-H5229, made in HEK293; also called human PD-L1-his; hPD-L-his
# [2] = molecular target: T1, Recombinant Human PD-L1/CD274 Protein …; assay: ELISA on coated hPD-L1-his; bound at pH7.4, then 2 h at pH5.5
# [3] = molecular target: T2, human PD-L1-Fc mutant E58A (human); assay: ELISA on captured PD-L1-Fc, as in Example 18A
# T2 construct: Position 58 counts on native human PD-L1 (NP_054862.1); also called E58A mutant
# [4] = molecular target: T3, wild type human PD-L1-Fc protein (SEQ ID NO: 107) (human); assay: ELISA on captured PD-L1-Fc, as in Example 18A
# T3 construct: Extracellular human PD-L1 (amino acid 19-238) with Fc fragment of human IgG1, expressed in 293T cells and used as culture supernatant; also called WT PD-L1; wild-type PD-L1
# [5] = molecular target: T4, Human PD-L1/CD274 with C-Fc Tag (hPD-L1-Fc) (human, UniProt Q9NZQ7 19-238); assay: blocking ELISA on coated hPD-L1-Fc; blocked ligand: biotinylated hPD-1-N297A
# T4 construct: range 19-238; ACRO Biosystem PD1-H5258, made in HEK293; also called human PD-L1-Fc; not shown: Fc fragment of human IgG1 at C-terminus
# [6] = molecular target: T1, Recombinant Human PD-L1/CD274 Protein …; assay: ELISA on coated hPD-L1-his; bound at pH7.4, then 2 h at pH5.5; remark: listed apart in the source
# Description: The pH-dependent binding affinity was further measured at various pH values, such as pH4, pH4.5, pH5.0, pH5.5, pH6.0, pH7.4. The measurement by ELISA was conducted similarly to the method described above. High-binding clear polystyrene 96 well plates were coated with 100 μl/well of a 0.5 μg/ml hPD-L1-his in high pH coating buffer and incubated overnight at 4° C. Then the coated plates were washed 3 times with shaking for 10s on an automatic plate washer with PBS+0.1% Tween 20 (Amresco). Then 200 μl of blocking buffer (1% BSA (Solarbio)+1% normal goat serum (Solarbio)+0.05% Tween 20 (Amresco)) was added to each well and the plates were then incubated for 2 hours at room temperature and washed 3 times as above. […] The plates were then washed once with 250 μl/well washing buffer at pH7.4, pH6.0, pH5.5, pH5.0, pH4.5 or pH4.0 and then 100 μl/well pH7.4 or pH5.5 washing buffer was added and the incubation was continued for 2 hours at RT with shaking. Afterwards, the plates was washed 3 times washing buffer at pH7.4 and 100 μl/well of a solution of HRP conjugated goat anti-hIgG HRP antibody (1:20000, Abcam) in pH7.4 dilution buffer was then added to each well of the plate. After that the plates were allowed to incubate for 60 min at room temperature followed by washing 3 times with 250 μl/well pH7.4 washing buffer. […] The plates were read on a Thermo Multiscan FC at 450 nm (see FIG. 23A-23F). […]
# [7] = molecular target: T1, Recombinant Human PD-L1/CD274 Protein …; assay: ELISA on coated hPD-L1-his; bound at pH7.4, then 2 h at pH7.4; remark: listed apart in the source
# Description: (§1) The pH-dependent binding affinity was further measured at various pH values, such as pH4, pH4.5, pH5.0, pH5.5, pH6.0, pH7.4. The measurement by ELISA was conducted similarly to the method described above. High-binding clear polystyrene 96 well plates were coated with 100 μl/well of a 0.5 μg/ml hPD-L1-his in high pH coating buffer and incubated overnight at 4° C. Then the coated plates were washed 3 times with shaking for 10s on an automatic plate washer with PBS+0.1% Tween 20 (Amresco). Then 200 μl of blocking buffer (1% BSA (Solarbio)+1% normal goat serum (Solarbio)+0.05% Tween 20 (Amresco)) was added to each well and the plates were then incubated for 2 hours at room temperature and washed 3 times as above. […] The plates were then washed once with 250 μl/well washing buffer at pH7.4, pH6.0, pH5.5, pH5.0, pH4.5 or pH4.0 and then 100 μl/well pH7.4 or pH5.5 washing buffer was added and the incubation was continued for 2 hours at RT with shaking. Afterwards, the plates was washed 3 times washing buffer at pH7.4 and 100 μl/well of a solution of HRP conjugated goat anti-hIgG HRP antibody (1:20000, Abcam) in pH7.4 dilution buffer was then added to each well of the plate. After that the plates were allowed to incubate for 60 min at room temperature followed by washing 3 times with 250 μl/well pH7.4 washing buffer. Finally, 100 μl/well of TMB was added to each well for 15 min and the reaction was terminated using 50 μl/well of 0.16M/L sulfuric acid. The plates were read on a Thermo Multiscan FC at 450 nm (see FIG. 23A-23F). The measurements were performed in triplicate.
# [8] = molecular target: T5, human PD-L1 expressed on cells (human, UniProt Q9NZQ7 19-290); assay: FACS, IFN-gamma stimulated HCC827 cells
# T5 construct: whole, on cells; also called hPD-L1 expressed on HCC827; hPD-L1 on MC38/hPD-L1 cells
# [9] = molecular target: T5, human PD-L1 expressed on cells; assay: blocking FACS on HCC827 cells; blocked ligand: biotinylated hPD-1-N297A
# Description: (§2) Log phase IFN-γ stimulated (500U/ml for 2 days) HCC827 cells were collected and resuspended in blocking buffer (5% BSA+PBS). 2×10\hat{ }5 cells were added to each tube and then washed once with PBS (1500 rpm, 5 mins, RT). […] After washing for three times with PBS, 100 μl/tube streptavidin-PE 1:200 in blocking buffer was added to each tube. The cells were incubated at 4° C. for 1 hr and then washed twice with PBS, followed by resuspending cells in 150 μl PBS for each sample. The cells were then transferred into FACS tube and the binding of the antibodies to the cells were detected with flow cytometry (ACEA Bioscience Novocyte) (see FIGS. 20A and 20B).
# [10] = molecular target: T1, Recombinant Human PD-L1/CD274 Protein …; assay: ELISA on coated hPD-L1-his
# [11] = molecular target: T1, Recombinant Human PD-L1/CD274 Protein …; assay: ELISA, coated hPD-L1-his, acidic wash and incubation after binding at pH7.4
# Description: as §1
# [12] = molecular target: hPD-L1 (antigen of the Biacore assay) (human, UniProt Q9NZQ7 19-238, limits assumed); assay: SPR (Biacore), antibody captured on anti-human Fc, antigen in flow
# Procedure, shortened: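 Antibody captured to 200–300 RU on an anti-human Fc CM5 surface, with an uncaptured flow cell as reference; antigen injected at varying concentrations, 180 s association, in HBS-EP pH 7.4. Regeneration with glycine pH 1.5 for 120 s; reference-subtracted signals evaluated.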
# [13] = molecular target: T1, Recombinant Human PD-L1/CD274 Protein …; assay: ELISA on coated hPD-L1-his; bound at pH7.4, then 2 h at pH7.4; remark: listed apart in the source
# [14] = molecular target: T1, Recombinant Human PD-L1/CD274 Protein …; assay: ELISA on coated hPD-L1-his; bound at pH7.4, then 2 h at pH5.5; remark: listed apart in the source
# [15] = molecular target: T5, human PD-L1 expressed on cells; assay: FACS, IFN-gamma stimulated HCC827 cells; remark: listed apart in the source
# Description: Log phase IFN-γ stimulated (500U/ml for 2 days) HCC827 cells were collected and resuspended in blocking buffer (5% BSA+PBS). 2×10\hat{ }5 cells were added to each tube and then washed once with PBS (1500 rpm, 5 mins, RT). The 100 μl/tube serial diluted biotinylated PD-L1 antibodies with blocking buffer were added into corresponding tubes and incubate at 4° C. for 1 hr.
# [16] = molecular target: T1, Recombinant Human PD-L1/CD274 Protein …; assay: ELISA on coated hPD-L1-his; bound at pH7.4, then 2 h at pH5.5; remark: listed apart in the source
# [17] = molecular target: T1, Recombinant Human PD-L1/CD274 Protein …; assay: ELISA on coated hPD-L1-his; bound at pH7.4, then 2 h at pH7.4; remark: listed apart in the source
# [18] = molecular target: T5, human PD-L1 expressed on cells; assay: blocking FACS on HCC827 cells; blocked ligand: biotinylated hPD-1-N297A; remark: listed apart in the source
# Description: as §2, with “RT). The 100 μl/tube serial diluted PD-L1 antibodies (see FIG. 8) with blocking buffer were added into corresponding tubes and incubate at 4° C. for 1 hr.” for “RT).”, “1:200 (EBiosciences)” for “1:200”, “Novocyte).” for “Novocyte) (see FIGS. 20A and 20B).”
# [19] = molecular target: T1, Recombinant Human PD-L1/CD274 Protein …; assay: ELISA on coated hPD-L1-his; bound at pH7.4, then 2 h at pH7.4; remark: listed apart in the source
# [20] = molecular target: T1, Recombinant Human PD-L1/CD274 Protein …; assay: ELISA on coated hPD-L1-his; bound at pH7.4, then 2 h at pH5.5; remark: listed apart in the source
# T2 sequence (chain, as listed by the source E58A E58A limits assumed): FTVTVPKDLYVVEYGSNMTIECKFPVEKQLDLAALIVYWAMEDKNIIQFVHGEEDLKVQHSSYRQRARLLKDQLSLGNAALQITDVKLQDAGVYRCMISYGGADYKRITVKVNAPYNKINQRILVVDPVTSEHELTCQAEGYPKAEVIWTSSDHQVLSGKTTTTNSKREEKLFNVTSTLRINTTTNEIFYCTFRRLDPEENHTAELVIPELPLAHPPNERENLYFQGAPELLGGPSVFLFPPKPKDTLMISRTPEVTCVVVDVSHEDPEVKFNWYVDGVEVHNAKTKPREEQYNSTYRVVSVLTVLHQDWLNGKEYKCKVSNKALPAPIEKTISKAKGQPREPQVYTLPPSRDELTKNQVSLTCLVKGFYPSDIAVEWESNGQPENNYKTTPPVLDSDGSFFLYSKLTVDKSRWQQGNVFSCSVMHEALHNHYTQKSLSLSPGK
# Chain of hPD-L1 (antigen of the Biacore assay) (Q9NZQ7 19-238 limits assumed): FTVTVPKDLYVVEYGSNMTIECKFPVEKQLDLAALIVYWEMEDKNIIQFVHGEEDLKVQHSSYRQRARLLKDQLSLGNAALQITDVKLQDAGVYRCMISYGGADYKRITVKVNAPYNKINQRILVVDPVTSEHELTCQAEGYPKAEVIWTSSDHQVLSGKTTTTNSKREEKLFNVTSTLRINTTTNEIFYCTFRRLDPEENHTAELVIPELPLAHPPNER
# T5 sequence (Q9NZQ7 19-290): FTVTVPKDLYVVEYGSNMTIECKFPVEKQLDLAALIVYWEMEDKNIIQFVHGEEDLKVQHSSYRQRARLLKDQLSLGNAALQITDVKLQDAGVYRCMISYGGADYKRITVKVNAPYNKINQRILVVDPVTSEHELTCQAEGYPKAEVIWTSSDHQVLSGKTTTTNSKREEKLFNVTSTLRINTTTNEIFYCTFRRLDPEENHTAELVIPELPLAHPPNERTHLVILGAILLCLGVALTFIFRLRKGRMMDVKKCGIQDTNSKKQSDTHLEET
# T3 sequence (chain, as listed by the source limits assumed): as the sequence (chain, as listed by the source E58A E58A limits assumed) above, with A40E counted along it
# T1 sequence (Q9NZQ7 other isoform, or with tags, fused parts or gaps limits assumed): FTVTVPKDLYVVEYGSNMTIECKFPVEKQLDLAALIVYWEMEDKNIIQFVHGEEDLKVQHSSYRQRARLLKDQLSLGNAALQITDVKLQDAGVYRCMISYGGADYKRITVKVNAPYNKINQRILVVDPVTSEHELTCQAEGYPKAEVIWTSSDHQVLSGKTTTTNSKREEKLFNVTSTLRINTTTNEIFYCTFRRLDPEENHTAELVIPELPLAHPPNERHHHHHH
# T4 sequence (Q9NZQ7 19-238 limits assumed): as the sequence (Q9NZQ7 19-238 limits assumed) above
binder,measurement,setting,value
B1,EC50 (read off the curve),[1],~0.01 µg/mL
same,EC50 (read off the curve),[2],~0.01 µg/mL
B2,% of binding of Ab to E58A mutant vs. that to WT PD-L1,[3],8.3%
same,Mean OD450,[3],0.111 OD450
same,OD450 nM of sample-1,[3],0.128 OD450
same,OD450 nM of sample-2,[3],0.094 OD450
same,Mean OD450,[4],1.34 OD450
same,OD450 nM of sample-1,[4],1.22 OD450
same,OD450 nM of sample-2,[4],1.47 OD450
same,IC50 (read off the curve),[5],~0.05 µg/mL
same,EC50 (read off the curve),[6],~0.02 µg/mL
same,EC50 (read off the curve),[7],~0.01 µg/mL
same,EC50 (read off the curve),[8],~0.02 µg/mL
same,IC50 (read off the curve),[9],~0.05 µg/mL
same,EC50 (read off the curve),[10],~0.002 µg/mL
same,binding signal at pH5 as percent of the signal at pH7.4,[11],< 50%
same,binding signal at pH5.5 as percent of the signal at pH7.4,[11],< 75%
same,Kd,[12],43.2 nM
same,koff,[12],0.0223 s⁻¹
same,kon,[12],517000 M⁻¹ s⁻¹
B3,EC50 (read off the curve),[13],~0.006 µg/mL
same,EC50 (read off the curve),[14],~0.008 µg/mL
same,IC50 (read off the curve),[9],~0.05 µg/mL
B4,EC50 (read off the curve),[15],~0.1 µg/mL
same,EC50 (read off the curve),[16],~0.02 µg/mL
same,EC50 (read off the curve),[17],~0.01 µg/mL
same,IC50 (read off the curve),[18],~0.09 µg/mL
B5,EC50 (read off the curve),[19],~0.008 µg/mL
same,EC50 (read off the curve),[20],~0.009 µg/mL
same,IC50 (read off the curve),[9],~0.06 µg/mL
